Experimental data from patent US20200317768A1 (published 2020).
Residue numbers refer to the chain shown, from its start.

B1: M103205H795-MY117/M103202L889-SK1 (antibody, human IgG1, kappa)
heavy: QVTLKESGPVLVKPTETLTLTCTVSGIDLSHDDISWVRQAPGKGLEWVGIISYAGSTYYASWAKGRLTISKDTSKNQVVLTMTNMDPVDTATYYCARGVPAYSHGGDLWGQGTLVTVSSASTKGPSVFPLAPSSKSTSGGTAALGCLVKDYFPEPVTVSWNSGALTSGVHTFPAVLQSSGLYSLSSVVTVPSSSLGTQTYICNVNHKPSNTKVDKKVEPKSCDKTHTCPPCPAPEWLNGPSVFLFPPKPKDTLMISRTPEVTCVVVDVAEEDPEVKFNWYVDGVEVHNAKTKPREEQYNSTYRVVSVLTVLHQDWLNGKEYKCKVSNKALPAPIEKTISKAKGQPREPQVYTLPPSREEMTKNQVSLTCLVKGFYPSDIAVEWESNGQPENNYKTTPMVLDSDGSFFLYSKLTVDKSRWQQGNVFSCSVMHEALHNHYTQKSLSLSP
light: DIVMTQSPATLSLSPGERATLSCTSSQSVYHANWLSWFQQKPGQPPKLLIYWASTLAYGVPSRFSGSGSGTDFTLTISSLQPEDAATYYCAGGYGGGRYAFGQGTKVEIKRTVAAPSVFIFPPSDEQLKSGTASVVCLLNNFYPREAKVQWKVDNALQSGNSQESVTEQDSKDSTYSLSSTLTLSKADYEKHKVYACEVTHQGLSSPVTKSFNRGEC
notes: Substitutions introduced into M103205H795-SG1; expressed with M103202L889-SK1 as light chain
B2: M103205H795-MY141/M103202L889-SK1 (antibody, human IgG1, kappa)
heavy: B1 heavy with W236L, E270H
light: B1 light
notes: as for B1
B3: M103205H795-MY197/M103202L889-SK1 (antibody, human IgG1, kappa)
heavy: B1 heavy with W236L, A269S, E270D, A332K
light: B1 light
notes: as for B1
B4: M103205H795-MY147/M103202L889-SK1 (antibody, human IgG1, kappa)
heavy: B1 heavy with W236L, L237W, A269S
light: B1 light
notes: as for B1

Columns and labels:
[1] = target: T1, human FcγRIIaR extracellular domain, C-terminal His-tag (human, UniProt P12318 34-217); assay: SPR (Biacore); KD of SG1 / KD of variant;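 further: relative to parent M103205H795-SG1 carrying the SG1 human heavy chain constant region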
T1 construct: also called human FcγRIIa (type R); FcgRIIaR
T1 chain: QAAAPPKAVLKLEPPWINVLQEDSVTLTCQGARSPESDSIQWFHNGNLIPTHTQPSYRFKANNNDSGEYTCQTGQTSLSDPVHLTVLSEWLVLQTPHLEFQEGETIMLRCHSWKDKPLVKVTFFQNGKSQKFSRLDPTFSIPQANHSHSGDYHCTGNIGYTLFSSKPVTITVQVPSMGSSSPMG
Protocol: (§1) The kinetic analysis of interactions between these antibodies and FcγR was carried out using BIACORE® T200 or BIACORE® 4000 (GE Healthcare). HBS-EP+ (GE Healthcare) was used as the running buffer, and the measurement temperature was set to 25° C. A chip produced by immobilizing Protein A. Protein A/G or mouse anti-human IgG kappa light chain (BD Biosciences) onto a Series S Sensor Chip CM4 or CM5 (GE Healthcare) by the amine-coupling method was used. […] After the measurement, the antibody captured on the chip was washed off by allowing reaction with 10 mM glycine-HCl, pH1.5 and 25 mM NaOH so that the chip was regenerated and used repeatedly. The sensorgrams obtained as measurement results were analyzed by the 1:1 Langmuir binding model using the BIACORE® Evaluation Software to calculate the binding rate constant ka (L/mol/s) and dissociation rate constant kd (l/s), and the dissociation constant KD (mol/L) was calculated from these values. […] Regarding such interactions, KD values were calculated using the following 1:1 binding model described in BIACORE® T100 Software Handbook BR1006-48 Edition AE.
(§2) The behavior of interacting molecules according to the 1:1 binding model on BIACORE® can be described by Equation 1: Req=C·R max/(KD+C)+RI, wherein, Req is a plot of steady-state binding levels to analyte concentration. C is concentration, RI is bulk refractive index contribution in the sample, and Rmax is analyte binding capacity of the surface. When this equation is rearranged, KD can be expressed as Equation 2: KD=C·Rmax/(Req−RI)−C. KD can be calculated by substituting the values of Rmax, RI, and C into Equation 1 or Equation 2. From the current measurement conditions, RI=0, C=2 μmol/L can be used.

[2] = target: T2, human FcγRIIIaV extracellular domain, C-terminal His-tag (human, UniProt P08637 17-208); assay: SPR (Biacore); KD of SG1 / KD of variant;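 further: relative to parent M103205H795-SG1 carrying the SG1 human heavy chain constant region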
T2 construct: also called human FcgRIIIaV; FcgRIIIaV
Protocol: as §1, §2

[3] = target: T3, cynomolgus monkey FcγRIIa3 extracellular domain, C-terminal His-tag (cynomolgus monkey); assay: SPR (Biacore); KD of SG1 / KD of variant;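 further: relative to parent M103205H795-SG1 carrying the SG1 human heavy chain constant region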
T3 construct: also called cyno FcγRIIa3; cynoFcgRIIa3
T3 chain: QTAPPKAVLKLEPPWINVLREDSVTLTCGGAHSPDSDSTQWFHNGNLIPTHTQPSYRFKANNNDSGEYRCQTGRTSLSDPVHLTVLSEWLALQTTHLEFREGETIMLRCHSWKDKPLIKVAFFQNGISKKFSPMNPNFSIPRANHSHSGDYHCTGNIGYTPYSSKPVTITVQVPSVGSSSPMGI
Protocol: as §1, §2

[4] = target: T4, cynomolgus monkey FcγRIIIaS extracellular domain, C-terminal His-tag (cynomolgus monkey, UniProt Q8SPW2 21-206 at identity 1.00)); assay: SPR (Biacore); KD of SG1 / KD of variant;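 further: relative to parent M103205H795-SG1 carrying the SG1 human heavy chain constant region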
T4 construct: also called cyno FcγRIIIaS; cynoFcγRIIIaS
T4 chain: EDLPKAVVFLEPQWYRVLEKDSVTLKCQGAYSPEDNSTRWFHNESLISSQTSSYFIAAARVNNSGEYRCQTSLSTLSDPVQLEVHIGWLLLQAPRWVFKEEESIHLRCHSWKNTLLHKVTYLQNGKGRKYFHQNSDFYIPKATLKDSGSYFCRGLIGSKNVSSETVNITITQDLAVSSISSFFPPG
Protocol: as §1, §2

[5] = target: T5, cynomolgus monkey FcγRIIa2 extracellular domain, C-terminal His-tag (cynomolgus monkey); assay: SPR (Biacore); KD of SG1 / KD of variant
T5 construct: also called cyno FcγRIIa2; cynoFcgRIIa2
T5 chain: T3 chain with I127K, K130N, P133H, R142Q
Protocol: as §1, §2

[6] = target: T6, human FcγRIIaH extracellular domain, C-terminal His-tag (human, UniProt P12318 34-217); assay: SPR (Biacore); KD of SG1 / KD of variant
T6 construct: also called human FcγRIIa (type H); FcgRIIaH
T6 sequence: T1 chain with R134H
Protocol: as §1, §2

[7] = target: T7, human FcγRIIb extracellular domain, C-terminal His-tag (human, UniProt P31994 43-217); assay: SPR (Biacore); KD of SG1 / KD of variant
T7 construct: also called human FcgRIIb; FcgRIIb
T7 sequence: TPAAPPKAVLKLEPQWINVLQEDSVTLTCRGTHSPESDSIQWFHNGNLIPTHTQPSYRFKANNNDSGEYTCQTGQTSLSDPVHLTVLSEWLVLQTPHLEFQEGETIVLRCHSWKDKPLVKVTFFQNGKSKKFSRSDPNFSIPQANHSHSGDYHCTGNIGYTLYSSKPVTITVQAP
Protocol: as §1, §2

[8] = target: T8, cynomolgus monkey FcγRIIb extracellular domain, C-terminal His-tag (cynomolgus monkey); assay: SPR (Biacore); KD of SG1 / KD of variant
T8 construct: also called cyno FcγRIIb; cynoFcγRIIb
T8 chain: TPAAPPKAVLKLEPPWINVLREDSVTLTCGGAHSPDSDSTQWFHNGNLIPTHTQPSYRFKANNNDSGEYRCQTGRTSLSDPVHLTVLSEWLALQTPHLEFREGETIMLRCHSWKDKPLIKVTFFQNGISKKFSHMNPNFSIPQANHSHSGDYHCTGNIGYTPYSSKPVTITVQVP
Protocol: as §1, §2

[9] = target: T4, cynomolgus monkey FcγRIIIaS …; assay: SPR (Biacore), antibody captured, FcgR analyte

T2 sequence (P08637 17-208 F176V): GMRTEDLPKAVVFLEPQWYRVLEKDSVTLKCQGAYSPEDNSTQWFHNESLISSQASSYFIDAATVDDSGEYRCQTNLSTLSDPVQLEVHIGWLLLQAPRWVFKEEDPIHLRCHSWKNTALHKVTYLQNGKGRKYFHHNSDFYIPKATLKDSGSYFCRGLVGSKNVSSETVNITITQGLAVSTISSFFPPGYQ

Row | KD fold (SG1 = 1) [1] | KD fold (SG1 = 1) [2] | KD fold (SG1 = 1) [3] | KD fold (SG1 = 1) [4] | KD fold (SG1 = 1) [5] | KD fold (SG1 = 1) [6] | KD fold (SG1 = 1) [7] | KD fold (SG1 = 1) [8] | Kd [9] | Binder
1 | 1.1 fold | 0.1 fold | 1.7 fold | 0.36 fold | 1.6 fold | 0.8 fold | 7.7 fold | 1.8 fold | 1 µM | B1
2 | 0.7 fold | 0.07 fold | 0.9 fold | 0.08 fold | 1.8 fold | 0.8 fold | 4.2 fold | 1 fold | 47 µM | B2
3 | 1.5 fold | 0.08 fold | 12.1 fold | 0.17 fold | 9.1 fold | 1.9 fold | 11.8 fold | 10.6 fold | 2.1 µM | B3
4 | 1 fold | 0.07 fold | 2.6 fold | 0.07 fold | 2.3 fold | 0.6 fold | 5.5 fold | 3.9 fold | 5.5 µM | B4
